Reference: article PMC12733242, “The Functional Role of Gate Loop Residues in Arrestin Binding to GPCRs” (International Journal of Molecular Sciences, 2025)

Experiments:
[1] = molecular target: T1, phosphorylated light-activated bovine rhodopsin (bovine, UniProt P02699 1-348, phosphorylated by endogenous rhodopsin kinase (GRK1), on average 2.6 phosphates per rhodopsin (sites not determined; the C-terminus has seven phosphorylatable serines and threonines); regenerated …); experiment: radioligand binding; direct binding assay: 1 nM [14C]leucine-labelled arrestin-1 (50 fmol) from cell-free translation incubated with 0.3 μg of P-Rh* or Rh* (7.8 pmol) in 50 mM Tris-HCl pH 7.4, 100 mM potassium acetate, 1 mM EDTA, 1 mM DTT, 5 min at 37 °C under room light; bound arrestin separated with rhodopsin-containing membranes by gel filtration on Sepharose CL-2B at 4 °C, scintillation counting; binding in …; settings: one partner purified
T1 construct: rhodopsin, bovine, wild type, in native disk membranes; Native protein; also called P-Rh*
T1 sequence (P02699 whole entry): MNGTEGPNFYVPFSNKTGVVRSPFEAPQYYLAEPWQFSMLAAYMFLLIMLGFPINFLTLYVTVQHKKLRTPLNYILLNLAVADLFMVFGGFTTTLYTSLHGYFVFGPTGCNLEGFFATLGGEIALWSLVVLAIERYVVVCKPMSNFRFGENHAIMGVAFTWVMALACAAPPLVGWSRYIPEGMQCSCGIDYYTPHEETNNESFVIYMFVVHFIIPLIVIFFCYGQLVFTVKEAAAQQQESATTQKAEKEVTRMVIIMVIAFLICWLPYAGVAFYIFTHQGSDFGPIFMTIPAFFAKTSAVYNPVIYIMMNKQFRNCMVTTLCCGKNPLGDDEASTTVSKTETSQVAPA

[2] = molecular target: T2, unphosphorylated light-activated bovine rhodopsin (bovine, UniProt P02699 1-348, light-activated); experiment: as above; settings: one partner purified
T2 construct: rhodopsin, bovine, wild type, in native disk membranes; Native protein; source: purified bovine rhodopsin in native disk membranes, unphosphorylated
T2 sequence (P02699 whole entry): as above

- increase of binding over WT [1]: 38%
- increase of binding over WT [2]: 156%
B1: bovine arrestin-1 with deletion of Gly292 (natural protein)
chain: MKANKPAPNHVIFKKISRDKSVTIYLGKRDYIDHVERVEPVDGVVLVDPELVKGKRVYVSLTCAFRYGQEDIDVMGLSFRRDLYFSQVQVFPPVGASGATTRLQESLIKKLGANTYPFLLTFPDYLPCSVMLQPAPQDVGKSCGVDFEIKAFATHSTDVEEDKIPKKSSVRLLIRKVQHAPRDMGPQPRAEASWQFFMSDKPLRLAVSLSKEIYYHGEPIPVTVAVTNSTEKTVKKIKVLVEQVTNVVLYSSDYYIKTVAAEEAQEKVPPNSSLTKTLTLVPLLANNRERRIALDGKIKHEDTNLASSTIIKEGIDKTVMGILVSYQIKVKLTVSGLLGELTSSEVATEVPFRLMHPQPEDPDTAKESFQDENFVFEEFARQNLKDAGEYKEEKTDQEAAMDE
modifications: [14C]leucine incorporated
notes: arrestin-1, bovine; bovine residue numbers; source: cell-free translation, radiolabelled; translation mix after centrifugation
